One block for each molecule: values may come before it. Positions of bridges follow the written chain, without caps; N, C: chain ends. Residues, ends and D or L forms follow the SMILES beside them. Chains are numbered I, II in the order given. No end group written: not given here. *: point of attachment. 5FAM = O=C1OC2(c3ccc(O)cc3Oc3cc(O)ccc32)c2ccc(C(=O)*)cc21
Tests used:
[1] = target: T1, Bir3 subunit of the XIAP (residues 252–350) (Homo sapiens, UniProt P98170); assay: Fluorescence spectroscopy binding of dimeric fl-ARTS 266–274 to Bir3 (Hill equation fit); conditions: fluorescence titration with Bir3; 20 mM Hepes pH 7.4, 45 mM NaCl, 10°C; Hill model, apparent averaged Kd; read-out: K d of dimeric peptide, fit to the Hill equation
T1 construct: The pET-21b(+) vector containing XIAP (252–350) Bir3 domain with a C-terminal His Tag; His tag (C); made in house; host or cells: E. coli BL21 Star (DE3)
T1 sequence (P98170 252-350): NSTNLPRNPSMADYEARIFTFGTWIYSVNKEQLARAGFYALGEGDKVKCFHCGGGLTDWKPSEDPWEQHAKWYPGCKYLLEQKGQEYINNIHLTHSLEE
Experimental: The importance of Cys273 residue for Bir3 binding raised the question of whether disulfide bond formation is involved in the interaction with Bir3. Addition of a reducing agent weakened the interaction between the ARTS derived peptides and Bir3 (Figure 4A). This raised the possibility that a disulfide bond is formed between two ARTS peptide molecules to form an active dimer. To test this, a covalent dimer of ARTS 266–274 was prepared by forming a disulfide bond between the Cys273 residues of two peptide monomers. MS gave a single peak corresponding the mass of the dimer (data not shown). […] Changes in the chemical shift of the sequentially following His274 and preceding Gln272 were also observed. Binding of Bir3 to the dimeric fl-ARTS 266–274 was studied using fluorescence spectroscopy (Fig. 6C). […]
Measurements were performed at 10°C by using a PerkinElmer LS-50b luminescence spectrofluorimeter equipped with a Hamilton microlabM dispenser as described in [44]. The fluorescently labeled peptide concentrations were determined by using a UV spectrophotometer (Shimadzu, Kyoto, Japan). […] Additions of 5 µl were titrated at 90 sec intervals, the solution was stirred for 15 sec, and the fluorescence and anisotropy were measured after each addition by using an excitation wavelength of 480 nm and an emission wavelength of 530 nm. […]

[2] = target: Dimer fl-ARTS 266-274 (human); assay: other fluorescence titration; Bir3 titrated into dimeric fl-ARTS 266-274; fluorescence fit to the Hill equation; apparent averaged Kd; 20 mM Hepes pH 7.4, 45 mM NaCl, 10°C
[3] = target: T1, Bir3 subunit of the XIAP (residues 252–350); assay: Fluorescence anisotropy binding of fluorescein-labeled ARTS peptides to Bir3 (1:1 binding model); conditions: Bir3 titrated into fluorescein-labeled peptide, 20 mM Hepes pH 7.4, 45 mM NaCl, 10°C, no reducing agent, fit to 1:1 binding model, nb = no binding detected
Experimental: Fluorescence anisotropy was used to characterize the interaction between ARTS CTD and the Bir3 subunit of XIAP. ARTS CTD (residues 248–274) was synthesized using standard Fmoc chemistry and labeled with fluorescein at its N-terminus. The Bir3 subunit of the XIAP (residues 252–350) was expressed with a His-tag at the C-terminus and purified (see materials and methods and Figure S1). The binding experiments were done in 20 mM Hepes buffer, pH 7.4, 45 mM NaCl, at 10°C. Bir3 was titrated into fl-ARTS CTD and the data were fit to 1∶1 binding model resulting in K d = 8.0±0.7 µM (Figure 4A).
The pET-21b(+) vector containing XIAP (252–350) Bir3 domain with a C-terminal His Tag was transformed into E. coli strain BL21 Star^+ (DE3) (Novagen). Cells were grown at 37°C in LB medium to an optical density (600 nm) of ∼0.6 and induced with 0.4 mM isopropyl-β-D-1-thiogalactoside (IPTG). Cells were harvested after 8 h of incubation at 37°C and were lysed by Microfluidizer (Microfluidics). The protein was purified on HiTrap nickel-Sepharose FF column (100×10 mm, GE Healthcare), using an FPLC system (ÁKTA explorer, Amersham Biosciences). The eluted protein was further purified by filtration on a Sephacryl S100 column (950×26 mm; Amersham Biosciences). The protein was stored in 20 mM Hepes pH 7.4, 50 mM NaCl, 10 mM βME, 0.02% sodium azide and was dialyzed before experimental use.
Measurements were performed at 10°C by using a PerkinElmer LS-50b luminescence spectrofluorimeter equipped with a Hamilton microlabM dispenser as described in [44]. The fluorescently labeled peptide concentrations were determined by using a UV spectrophotometer (Shimadzu, Kyoto, Japan). The fluorescein-labeled ARTS derived peptides were dissolved in 20 mM Hepes buffer, pH 7.4 and 45 mM NaCl. 1 ml of the labeled peptide solution was placed in a cuvette, and the non-labeled Bir3 (200 µl, 150 µM) was placed in the dispenser. Additions of 5 µl were titrated at 90 sec intervals, the solution was stirred for 15 sec, and the fluorescence and anisotropy were measured after each addition by using an excitation wavelength of 480 nm and an emission wavelength of 530 nm. Dissociation constants (K d) were calculated by fitting the fluorescence titration curves (corrected for dilution) or fluorescence anisotropy curves to 1∶1 binding model using KALEIDAGRAPH (Synergy Software, Reading, PA). The following equation was used for the single-site model of the fluorescence results: [drawing 1] Where, F0 is the initial fluorescence, ΔF is the amplitude of the fluorescence change from unbound and bound states, K d is the dissociation constant and [Bir3] is the added concentration of Bir3 domain. A similar equation was used to fit the anisotropy results by replacing the fluorescence (F) with anisotropy (R) changes.

[4] = target: T2, Bir3 domain of XIAP (residues 252-350) with a C-terminal His tag (UniProt P98170 252-350); assay: fluorescence polarisation; non-labeled Bir3 (200 µl, 150 µM) titrated in 5 µl additions into 1 ml of fluorescein-labeled peptide; 20 mM Hepes pH 7.4, 45 mM NaCl, 10°C; fit to 1:1 binding model; conditions: both partners purified
T2 construct: Stored with 10 mM beta-mercaptoethanol and dialysed before experimental use; also called Bir3 subunit of XIAP; XIAP (252-350); source: E. coli BL21 Star (DE3), purified (nickel-Sepharose, Sephacryl S100 gel filtration)
T2 sequence (P98170 252-350): as above

[5] = target: T2, Bir3 domain of XIAP (residues 252-350) …; assay: as above; conditions: both partners purified; remark: listed apart in the source
[6] = target: T2, Bir3 domain of XIAP (residues 252-350) …; assay: NMR titration; TOCSY spectra of free and Bir3-bound ARTS CTD compared; peptide 0.5-1.5 mM, 20 mM deuterated Hepes, 45 mM potassium chloride, pH 6.8, 12°C; conditions: both partners purified
[7] = target: the molecule itself; assay: SEC; analytical gel filtration of ARTS CTD 248-274 (1-2 mM) without DTT; 20 mM Hepes pH 7.4, 50 mM NaCl, 4°C; peaks identified by mass spectrometry; monomer to dimer

Molecule: NC(=O)CC[C@H](NC(=O)CNC(=O)[C@H](CCC(N)=O)NC(=O)[C@H](Cc1c[nH]cn1)NC(=O)[C@H](CCC(=O)O)NC(=O)[C@H](CCC(N)=O)NC(=O)c1ccc2c(c1)C(=O)OC21c2ccc(O)cc2Oc2cc(O)ccc21)C(=O)NCC(=O)N[C@@H](CSSC[C@H](NC(=O)CNC(=O)[C@H](CCC(N)=O)NC(=O)CNC(=O)[C@H](CCC(N)=O)NC(=O)[C@H](Cc1c[nH]cn1)NC(=O)[C@H](CCC(=O)O)NC(=O)[C@H](CCC(N)=O)NC(=O)c1ccc2c(c1)C(=O)OC21c2ccc(O)cc2Oc2cc(O)ccc21)C(=O)N[C@@H](Cc1c[nH]cn1)C(=O)O)C(=O)N[C@@H](Cc1c[nH]cn1)C(=O)O [Dimer fl-ARTS 266–274] (I: 5FAM-QEHQGQGCH-OH / II: 5FAM-QEHQGQGCH-OH; disulfide I:8-II:8)
Kd [1]: 2.4 ± 0.1 µM

Molecule: Bir3 domain of XIAP (residues 252-350) with a C-terminal His tag (from UniProt P98170 252-350) (domain or fragment)
Kd [2]: 2.4 µM

Molecule: QEAQGQGCH [fl-ARTS 266–274 H268A, alanine-scan analogue of fl-ARTS 266–274]
K d (µM), binding affinity to Bir3 [3]: nb | K d (µM), binding affinity to Bir3 ([3]; listed as ARTS 266–274 H268A): did not bind

Molecule: YGPSLRLLA [fl-ARTS 248–256, fluorescein-labeled peptide of ARTS residues 248–256]
K d (µM), binding affinity to Bir3 [3]: nb | K d (µM), binding affinity to Bir3 ([3]; listed as ARTS 248–256): did not

B1: fl-ARTS 266-274 Q271A (peptide)
peptide: {5'/6'‑carboxyfluorescein}-QEHQGAGCH
notes: numbers count on: ARTS/Sept4_i2 (GenBank AAG45673.1); source: synthetic peptide
Kd [4]: 1.3 ± 0.2 µM

B4: fl-ARTS 266-274 (peptide)
peptide: {5'/6'‑carboxyfluorescein}-QEHQGQGCH
notes: numbers count on: ARTS/Sept4_i2 (GenBank AAG45673.1); also called ARTS 266-274 monomer; source: synthetic peptide
Kd [5]: 2.9 ± 0.3 µM | Kd [4]: 2.5 ± 0.3 µM

B5: fl-ARTS 266-274 E267A (peptide)
peptide: {5'/6'‑carboxyfluorescein}-QAHQGQGCH
notes: as for B1
Kd [4]: 3.6 ± 0.8 µM

B6: fl-ARTS 266-274 H274A (peptide)
peptide: {5'/6'‑carboxyfluorescein}-QEHQGQGCA
notes: as for B1
Kd [4]: 0.8 ± 0.3 µM

B7: fl-ARTS 266-274 Q266A (peptide)
peptide: {5'/6'‑carboxyfluorescein}-AEHQGQGCH
notes: as for B1
Kd [4]: 0.9 ± 0.1 µM

Now from value to molecule, other results behind:

K d (µM), binding affinity to Bir3 [3]: nb | K d (µM), binding affinity to Bir3 ([3]; listed as ARTS 257–265): did not
Molecule: PPGAVKGTG [fl-ARTS 257–265, fluorescein-labeled peptide of ARTS residues 257–265]

K d (µM), binding affinity to Bir3 [3]: nb | K d (µM), binding affinity to Bir3 ([3]; listed as Cys273A): did not bind
Molecule: QEHQGQGAH [fl-ARTS 266–274 C273A, alanine-scan analogue of fl-ARTS 266–274]

Kd [4]: 1 ± 0.3 µM
B2: fl-ARTS 266-274 Q269A (peptide)
peptide: {5'/6'‑carboxyfluorescein}-QEHAGQGCH
notes: as for B1

Kd [4]: 8 ± 0.7 µM
B3: fl-ARTS 248-274 (peptide)
peptide: {5(6)‑carboxyfluorescein}-YGPSLRLLAPPGAVKGTGQEHQGQGCH
notes: numbers count on: ARTS/Sept4_i2 (GenBank AAG45673.1); also called fl-ARTS CTD; fluorescein-labeled ARTS CTD 248-274; source: synthetic peptide

binding result [6]: binds
B8: ARTS CTD 248-274 (not labelled) (peptide)
peptide: YGPSLRLLAPPGAVKGTGQEHQGQGCH
notes: numbers count on: ARTS/Sept4_i2 (GenBank AAG45673.1); also called ARTS C-terminal domain; source: synthetic peptide
stoichiometry N [7]: 2
